Experimental data taken from US20230158179A1 (RAYZEBIO, published 2023).
Bridge positions count the residues as written; N and C are the ends. Square brackets hold non-standard residues; d marks the D form. Phe(3-Ph) = N[C@@H](Cc1cccc(-c2ccccc2)c1)C(=O)O; Bip = N[C@@H](Cc1ccc(-c2ccccc2)cc1)C(=O)O; Phe(3-Cl) = N[C@@H](Cc1cccc(Cl)c1)C(=O)O; NMeY = CN[C@@H](Cc1ccc(O)cc1)C(=O)O; NMeF = CN[C@@H](Cc1ccccc1)C(=O)O; Cba = N[C@@H](CC1CCC1)C(=O)O; Chg = N[C@H](C(=O)O)C1CCCCC1

Legend:
[1] = molecular target: T1, FOLR1-Fc-Avi (AcroBiosystems, F01-H82F9) (UniProt P15328 25-234, biotinylated (immobilised by streptavidin-biotin chemistry)); assay: SPR, Biacore 8K, FOLR1-Fc-Avi immobilised, single cycle kinetics, 1:1 model; grade legend paragraph 444: 0 nM < A <= 10 nM
T1 construct: Bought reagent; also called folate receptor 1
Method: For analysis of peptide binding, a Biacore 8K instrument was used utilizing either a SA chip or a CAP chip. FOLR1-Fc-Avi (AcroBiosystems, F01-H₈₂F9) was immobilized on the chip using streptavidin-biotin chemistry at 25° C. in PBS-P+ buffer (20 mM phosphate, 2.7 mM KCl, 137 mM NaCl, 0.05% Tween-20, pH 7.4) to a level of 500-2500 RU (dependent on the analyte molecular weight). A dilution series of peptides was prepared in this buffer with a final DMSO concentration of 1% with a top peptide concentration at 50 or 100 nM and 8 further 2-fold dilutions. The SPR analysis was run at 25° C. at a flow rate of 100 μL/min in PBS-P+ with 1% DMSO running buffer and with a 120 second association and 10,000 second dissociation using single cycle kinetics methodology. All data was analyzed using Biacore Insight Evaluation Software version 3.) Data was fitted using a Langmuir 1:1 binding model.

[2] = molecular target: T2, FOLR1 on FOLR1 expressing cells (IGROV1) (UniProt P15328 25-234, limits assumed); assay: flow cytometry on IGROV1 cells in human plasma/PBS, detection with SA-647; grade legend paragraph 454: 0 nM < A <= 100 nM
T2 construct: whole, on cells; also called folate receptor 1

Human Serum Albumin = molecular target: T3, Human Serum Albumin (human, UniProt P02768 25-609); assay: HSA-HPLC, immobilised HSA column, estimated from retention time; grade legend paragraph 440: 90% < A <= 100%
T3 construct: Immobilised on the HPLC column; also called HSA
Text: HSA-HPLC method (measurement of drug protein binding by immobilized human serum albumin-HPLC). A 13-minute HPLC (Thermo Vanquish Horizon with Diode Array Detector) gradient method was used to determine the HSA (Human Serum Albumin) binding of novel compounds using a chemically bonded protein stationary phase (ChiralPAK HSA HPLC column, 50×4 mm). The HSA binding values were derived from the gradient retention times that were converted to the logarithm of the equilibrium constant using data from a calibration set of molecules. The % bound to plasma values for the calibrator compounds were converted to the linear free energy values using the following equation: LogK=log[% PPB/(101−% PPB)]. The logarithmic value of the gradient retention times from the experiment were plotted against the linearized values of the percent bound to plasma. The slope and the intercept were used to convert the retention times to linear free energy values (LogK), from which the estimated % protein binding was calculated using the following equation: % Binding=[(101·10^LogK)/(1+10^LogK)]. Aqueous mobile phase (A) was 50 mM ammonium acetate solution, ph7.4 and the organic mobile phase (B) was 2-propanol. The flow rate was set at 0.350mL/min and injection volume was 5 uL, with samples prepared at 0.5 mg/mL concentration in 50:50 mobile phase. The initial LC conditions were conducted at room temperature, set at 0% B and ramped to 50% B over 8.5 minutes, then held at 50% B for 1.5 minutes before going back to initial conditions and re-equilibrating the column for 2.5 minutes. Chromatograms were recorded at 280 nm by a diode array UV absorption detector.

[3] = molecular target: T4, Trop-2 on Trop-2 expressing cells (A431) (UniProt P09758 27-323, limits assumed); assay: flow cytometry on A431 cells, procedure of the PSMA cell assay; grade legend paragraph 462: 0 nM < A <= 100 nM
T4 construct: whole, on cells; also called tumor-associated calcium signal transducer 2
T4 sequence (looked up): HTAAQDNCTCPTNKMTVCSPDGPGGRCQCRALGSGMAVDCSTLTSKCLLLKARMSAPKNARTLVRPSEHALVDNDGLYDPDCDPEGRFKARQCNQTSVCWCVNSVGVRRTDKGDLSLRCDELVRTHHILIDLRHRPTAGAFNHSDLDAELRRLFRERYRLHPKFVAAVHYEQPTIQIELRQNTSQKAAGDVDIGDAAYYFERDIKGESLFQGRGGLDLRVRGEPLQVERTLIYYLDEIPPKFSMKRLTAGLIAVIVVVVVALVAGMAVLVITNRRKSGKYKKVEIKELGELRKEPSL

[4] = molecular target: T5, PSMA on PSMA expressing cells (LnCap) (UniProt Q04609 1-750, limits assumed); assay: flow cytometry on LnCap cells, biotinylated compound, detection with SA-A647; grade legend paragraph 460: 0 nM < A <= 100 nM
T5 construct: whole, on cells; also called prostate-specific membrane antigen

[5] = molecular target: T6, His-Avi-PSMA (AcroBiosystems, PSA-H82Qb) (UniProt Q04609 44-750, biotinylated (immobilised by streptavidin-biotin chemistry)); assay: SPR, Biacore 8K, His-Avi-PSMA immobilised, single cycle kinetics, 1:1 model; grade legend paragraph 447: 0 nM < A <= 10 nM
T6 construct: Bought reagent; also called prostate-specific membrane antigen
Method: For analysis of peptide binding, a Biacore 8K instrument was used utilizing a SA chip. His-Avi-PSMA (AcroBiosystems, PSA-H82Qb) was immobilized on the chip using streptavidin-biotin chemistry at 25° C. in HBS-P+ buffer (10 mM HEPES, 150 mM NaCl, 0.05% Tween-20, pH 7.4) to a level of 800-2200 RU (dependent on the analyte molecular weight). A dilution series of peptides was prepared in this buffer with a final DMSO concentration of 1% with a top peptide concentration between 10-100 nM and 8 further 2-fold dilutions. The SPR analysis was run at 25° C. at a flow rate of 100 μL/min in HBS-P+ with 1% DMSO running buffer and with a 120 second association and 10,000 second dissociation using single cycle kinetics methodology. All data was analyzed using Biacore Insight Evaluation Software version 3. Data was fitted using a Langmuir 1:1 binding model.

T1 sequence (P15328 25-234 limits assumed): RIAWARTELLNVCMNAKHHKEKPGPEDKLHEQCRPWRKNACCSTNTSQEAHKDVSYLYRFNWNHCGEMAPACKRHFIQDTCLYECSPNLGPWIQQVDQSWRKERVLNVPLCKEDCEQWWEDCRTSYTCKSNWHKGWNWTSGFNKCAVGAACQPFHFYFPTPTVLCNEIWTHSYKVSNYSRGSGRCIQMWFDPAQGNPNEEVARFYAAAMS
T2 sequence (P15328 25-234 limits assumed): as above
T6 sequence (Q04609 44-750 limits assumed): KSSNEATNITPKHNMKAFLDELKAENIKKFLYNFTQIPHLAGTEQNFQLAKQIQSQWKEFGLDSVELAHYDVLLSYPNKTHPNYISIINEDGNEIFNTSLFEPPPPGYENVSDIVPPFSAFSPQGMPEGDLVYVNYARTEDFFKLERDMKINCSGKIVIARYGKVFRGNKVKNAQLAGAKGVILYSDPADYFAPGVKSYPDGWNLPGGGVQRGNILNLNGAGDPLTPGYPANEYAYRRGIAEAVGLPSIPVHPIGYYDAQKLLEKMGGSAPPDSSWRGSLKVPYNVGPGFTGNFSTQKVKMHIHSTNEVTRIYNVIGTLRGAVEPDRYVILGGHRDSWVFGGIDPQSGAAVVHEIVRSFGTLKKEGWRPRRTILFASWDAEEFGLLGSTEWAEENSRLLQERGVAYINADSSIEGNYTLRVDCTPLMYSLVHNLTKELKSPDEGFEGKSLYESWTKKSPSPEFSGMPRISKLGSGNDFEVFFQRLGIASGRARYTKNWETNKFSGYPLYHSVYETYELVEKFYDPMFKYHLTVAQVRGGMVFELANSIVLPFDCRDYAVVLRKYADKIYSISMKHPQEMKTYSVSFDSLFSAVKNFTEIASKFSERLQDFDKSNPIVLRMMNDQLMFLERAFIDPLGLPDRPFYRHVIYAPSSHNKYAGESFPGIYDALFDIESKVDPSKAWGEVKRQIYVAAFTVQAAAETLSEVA
T5 sequence (Q04609 whole entry): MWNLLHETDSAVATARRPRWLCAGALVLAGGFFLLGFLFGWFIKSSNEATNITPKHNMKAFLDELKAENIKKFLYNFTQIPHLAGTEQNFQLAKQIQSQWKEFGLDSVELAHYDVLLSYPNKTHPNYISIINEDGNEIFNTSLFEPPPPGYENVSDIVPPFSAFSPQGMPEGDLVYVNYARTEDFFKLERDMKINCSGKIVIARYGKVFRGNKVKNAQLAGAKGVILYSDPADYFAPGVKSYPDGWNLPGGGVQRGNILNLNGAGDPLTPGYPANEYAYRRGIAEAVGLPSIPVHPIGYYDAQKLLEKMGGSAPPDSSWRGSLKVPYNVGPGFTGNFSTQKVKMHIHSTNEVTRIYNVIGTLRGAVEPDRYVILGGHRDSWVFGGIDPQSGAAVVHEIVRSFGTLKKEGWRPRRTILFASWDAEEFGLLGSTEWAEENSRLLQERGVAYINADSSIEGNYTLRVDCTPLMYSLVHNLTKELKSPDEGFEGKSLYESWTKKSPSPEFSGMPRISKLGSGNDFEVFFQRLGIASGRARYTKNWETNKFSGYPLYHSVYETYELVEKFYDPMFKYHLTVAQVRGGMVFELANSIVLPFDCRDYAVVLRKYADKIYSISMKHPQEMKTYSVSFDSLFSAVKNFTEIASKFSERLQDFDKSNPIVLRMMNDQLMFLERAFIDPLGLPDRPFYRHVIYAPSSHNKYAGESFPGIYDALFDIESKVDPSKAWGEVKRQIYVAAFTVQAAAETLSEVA

B1: P-10 (peptide)
peptide: ARL[NMeF]DYDT[NMeY][NMeY]WYC-NH2
modifications: bridge N-13; not fully specified (N-terminus, bridges)
notes: The cell assay detects with SA-647, so a biotinylated form was used
**Q.** Which results are given for B1?
**A.** Kd [1]: ≤ 10 nM; EC50 [2]: ≤ 100 nM; % Bound to HSA at r.t. (Human Serum Albumin): > 90%

**Q.** For DR[Chg][NMeF]DYDT[NMeY][NMeY]WYC-NH2 (bridge N-13; not fully specified (N-terminus, bridges)) [P-12], which Kd [1] is on record?
**A.** ≤ 10 nM

**Q.** And the “% Bound to HSA at r.t.” value (Human Serum Albumin)?
**A.** > 90%

B2: P-11 (peptide)
peptide: DR[Chg][NMeF]D[Phe(3-Cl)]DT[NMeY][NMeY]WYC-NH2
modifications: bridge N-13; not fully specified (N-terminus, bridges)
notes: as for B1
**Q.** How did the Kd [1] turn out when B2 was run?
**A.** ≤ 10 nM

**Q.** And the EC50 [2]?
**A.** ≤ 100 nM

**Q.** And the “% Bound to HSA at r.t.” value (Human Serum Albumin)?
**A.** > 90%

B3: P-40 (peptide)
peptide: [dA]D[Bip]IYPA[Bip]SSES[NMeF]C-NH2
modifications: bridge N-14; not fully specified (N-terminus, bridges)
notes: The cell assay followed the procedure with biotinylated compounds
**Q.** How did the EC50 [3] turn out when B3 was run?
**A.** ≤ 100 nM

**Q.** What about the “% Bound to HSA at r.t.” value (Human Serum Albumin) of the same binder?
**A.** > 90%

**Q.** What does the source list for W[Phe(3-Ph)]DVDSD[Cba]W[Phe(3-Ph)]DC-NH2 (bridge N-12; not fully specified (N-terminus, bridges)) [P-21]?
**A.** EC50 [4]: ≤ 100 nM; Kd [5]: ≤ 10 nM; % Bound to HSA at r.t. (Human Serum Albumin): > 90%
